Measured values taken from the supplement of paper PMC12764529.
± gives the half width of the 95% confidence interval.

Tests used:
[1] = folding stability dG unfold (combined trypsin and chymotrypsin); higher = more stable
Method in brief: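 Sequencing followed digestion of designed mini-proteins with trypsin and chymotrypsin, each at 11 concentrations in threefold dilutions together with a no-protease condition. The mini-proteins were under 80 residues, had no cysteine, sat in a PA-tagged cDNA display construct, and were kept only if AlphaFold2 dimer inter-PAE was above 15. From the counts, Bayesian fitting gave K50, and unfolding free energy was derived against a sequence-predicted unfolded-state K50 and a shared folded-state K50, per protease or combined.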

[2] = folding stability dG unfold from chymotrypsin proteolysis; higher = more stable
Experimental: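 Folding stability of de novo designed mini-proteins (<80 aa, no Cys; designed by TrROS, TrMRF, ProteinMPNN and the joint model) was measured by cDNA display proteolysis with trypsin and chymotrypsin. Each protease was used at 11 concentrations in a threefold dilution series plus a no-protease condition. K50 was inferred by Bayesian fitting of sequencing counts, and dG unfold was derived against a sequence-predicted unfolded-state K50 (Tsuboyama et al. method). Sequences shown include variable-length N-terminal GS-type padding (SAGGSAGG...) inside a display construct carrying a PA tag. Rows were kept only if the AF2 dimer inter-PAE was >15, to exclude likely homo-oligomers.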

Which “folding stability dG unfold” value [1] does the source give for “SAGGSAGGSAIPPDAPVEVPVRVRVGGEEFDVTATLTARPDGSVGVDVDVDVPADEAEIEPASAGGSAGGSA [r18_428_TrMRF]” here?
The value was < -1 kcal/mol.

What about the “folding stability dG unfold” value [2] of the same sequence?
Its value is 0.118 ± 0.32 kcal/mol.

Which “folding stability dG unfold” value [1] does the source give for “SAGGSAGGSAKAKVLEVEEKPVGGVNRFKIEVPLENGEPQKFYVLVEVPEDGDEKFAVKPGSAGGSAGGSAG [r3_94_TrMRF]” here?
Its value is -0.319 ± 0.18 kcal/mol.

And the “folding stability dG unfold” value [2]?
The value was 0.1 ± 0.16 kcal/mol.

With “SAGGSAGGSAKKLKIPNPDGKTYEMKVEDVDPENNNVMIRNPGNGEPFHFKKSDAKRIAEELSAGGSAGGSA [r18_161_TrROS]” as the sequence, how does the “folding stability dG unfold” value [1] read?
Its value is < -1 kcal/mol.

And the “folding stability dG unfold” value [2]?
The value was -0.626 ± 0.44 kcal/mol.

For “SAGGSAGGSAMIETSVSLDPKNGLRKVTQNVTPEEYLKLTGGPPIPKENKTTVTLTKTLPVPSAGGSAGGSA [r18_327_JUSTAS]”, which “folding stability dG unfold” value [1] is on record?
Its value is -0.726 ± 0.16 kcal/mol.

What about the “folding stability dG unfold” value [2] of the same sequence?
Its value is -0.265 ± 0.087 kcal/mol.

With “SAGGSAGGSAMKLTKEYVFTKTITLKNGKTKTESEVLTEEVPPIPLEELIKRLGLPPEELISAGGSAGGSAG [r3_338_JUSTAS]” as the sequence, how does the “folding stability dG unfold” value [1] read?
The value was -0.186 ± 0.32 kcal/mol.

What about the “folding stability dG unfold” value [2] of the same sequence?
The value was -0.126 ± 0.44 kcal/mol.

With “SAGGSAGGSAMPIPKVLVLKDEGTLEEAREAALKYVKEDEKVIVKIGDKEIVIPAEELKKKSAGGSAGGSAG [r3_50_TrMRF]” as the sequence, how does the “folding stability dG unfold” value [1] read?
Its value is < -1 kcal/mol.

And the “folding stability dG unfold” value [2]?
Its value is -0.237 ± 0.5 kcal/mol.

What does the source list for “SAGGSAGGSAMTVYVPIEEVGPDENGEYDDELIRERVREEYPDEPVEEVLVEGPEEAERVARSAGGSAGGSA [r18_72_JUSTAS]”?
folding stability dG unfold [1]: -0.384 ± 0.23 kcal/mol; folding stability dG unfold [2]: -0.134 ± 0.061 kcal/mol

For “SAGGSAGGSAMVTVTILSEDTTDSPRTYTVLFPAEGKALPLPFPADASEAEVRARALELLASAGGSAGGSAG [r3_142_JUSTAS]”, which “folding stability dG unfold” value [1] is on record?
The value was < -1 kcal/mol.

What about the “folding stability dG unfold” value [2] of the same sequence?
Its value is 0.673 ± 0.15 kcal/mol.

For “SAGGSAGGSANQVKVEIEIPRMKMERDPDGGYQMEMRPVKIEIEAPMPEEQADDIAKDLIKSAGGSAGGSAG [r3_487_TrROS]”, which “folding stability dG unfold” value [1] is on record?
The value was 0.0639 ± 0.16 kcal/mol.

What about the “folding stability dG unfold” value [2] of the same sequence?
Its value is 0.579 ± 0.045 kcal/mol.

What does the source list for “SAGGSAGGSAPEPVVAKLVEVVTLPDGTPVLLFVVDHPDGPPELRLSTDALIEGDDLVDPSSAGGSAGGSAG [r3_261_TrMRF]”?
folding stability dG unfold [1]: -0.0131 ± 0.2 kcal/mol; folding stability dG unfold [2]: 0.404 ± 0.078 kcal/mol

What does the source list for “SAGGSAGGSAREELVRRAAEEGLPGVRVLAIPPGNREVPAIVEGDKVYSYDLPDDAEVVVASAGGSAGGSAG [r3_244_TrMRF]”?
folding stability dG unfold [1]: -0.0679 ± 0.086 kcal/mol; folding stability dG unfold [2]: 0.408 ± 0.08 kcal/mol

What does the source list for “SAGGSAGGSARIRFPNGYEIEVPRKRNPDGNLEITIESRNPDNPEHREMAKKIARDIADELSAGGSAGGSAG [r3_163_TrROS]”?
folding stability dG unfold [1]: -0.526 ± 0.17 kcal/mol; folding stability dG unfold [2]: -0.0805 ± 0.06 kcal/mol

With “SAGGSAGGSARTVPPDLLVRVETPDEERIVPVSELDAFFARHPDVPWRDITVVDPATGAARSAGGSAGGSAG [r3_134_JUSTAS]” as the sequence, how does the “folding stability dG unfold” value [1] read?
Its value is -0.675 ± 0.37 kcal/mol.

And the “folding stability dG unfold” value [2]?
Its value is 0.539 ± 0.11 kcal/mol.

For “SAGGSAGGSASEEEKPPKIKRVTINIPEEELRERFPGNPEWAENIAREAAKEGFDEVEIDINSAGGSAGGSA [r18_441_TrROS]”, which “folding stability dG unfold” value [1] is on record?
The value was 0.521 ± 0.17 kcal/mol.

What about the “folding stability dG unfold” value [2] of the same sequence?
The value was 0.942 ± 0.12 kcal/mol.

With “SAGGSAGGSASLSLDQVGTVTFPANGAPALVTRLPDGSVALYFPATGRVLYLDGPNDVTPDSAGGSAGGSAG [r3_96_TrMRF]” as the sequence, how does the “folding stability dG unfold” value [1] read?
The value was 0.552 ± 0.075 kcal/mol.

And the “folding stability dG unfold” value [2]?
Its value is 0.97 ± 0.059 kcal/mol.

For “SAGGSAGGSASYSVTISPEERIEPVVDYKTGERRLVERRRVVVTADPKLSPALKAAILAALSSAGGSAGGSA [r18_438_JUSTAS]”, which “folding stability dG unfold” value [1] is on record?
The value was -0.237 ± 0.2 kcal/mol.

And the “folding stability dG unfold” value [2]?
Its value is 0.144 ± 0.2 kcal/mol.

For “SAGGSAGGSAWRTIEITWPPSNPEEFIDEISKDFGFTVEGEREPNGYHTIDFQLPPGMKIVSAGGSAGGSAG [r3_457_TrROS]”, which “folding stability dG unfold” value [1] is on record?
The value was -0.224 ± 0.2 kcal/mol.

What about the “folding stability dG unfold” value [2] of the same sequence?
The value was -0.137 ± 0.23 kcal/mol.

With “SAGGSAGGSDDAVTFTFTSAPTRLLYLDNPKTFPGSATVTLPAGNPDEFRIERFAPDTAELKPSAGGSAGGS [r20_150_TrMRF]” as the sequence, how does the “folding stability dG unfold” value [1] read?
The value was < -1 kcal/mol.

And the “folding stability dG unfold” value [2]?
The value was -0.427 ± 0.62 kcal/mol.

Which results are given for “SAGGSAGGSEEIYIKVTVEHPNGEKRTHEIERIRDKDGLPIKQIAKELAQEPNVRDVDVEIVKSAGGSAGGS [r12_199_TrROS]”?
folding stability dG unfold [1]: -0.56 ± 0.15 kcal/mol; folding stability dG unfold [2]: -0.316 ± 0.072 kcal/mol

With “SAGGSAGGSEEVVRTETSTSTTPDGKRVKTTTTTLPTPTTVTTTTVYAPGGEVLETTTTTTAASAGGSAGGS [r12_727_JUSTAS]” as the sequence, how does the “folding stability dG unfold” value [1] read?
The value was < -1 kcal/mol.

What about the “folding stability dG unfold” value [2] of the same sequence?
Its value is -0.123 ± 0.2 kcal/mol.

Which results are given for “SAGGSAGGSELPPGPYLVTIPADPEPVVAPATFAPDGTVRVRVPEPGEEITIPRDQAEIFPVESAGGSAGGS [r12_782_JUSTAS]”?
folding stability dG unfold [1]: -0.0148 ± 0.28 kcal/mol; folding stability dG unfold [2]: 0.944 ± 0.058 kcal/mol
